Measurements published in the RNAGym collection of RNA variant scans (doi:10.7554/elife.80360).

B1: Twister Ribozyme (parent)
chain: AACACUGCCAAUGCCGGUCCCAAGCCCGGAUAAAAGUGGAGGGGGCGG

Variants of: B1
Assay: self-cleavage, relative activity (ratio to wild type); higher = more cleavage; co-transcriptional

Variant | self-cleavage
AACACUGCCAAUGCCGAUCCUAAGCCCGGAUAAAAGUGGAGGGGGCGG | 0.0984
AACACUGCCAAUGCCUGUCCCAAGCCCUGAUAAAAGUGGAGGGGGCGG | 1.07
AACACUGCCAAUGCCUGUCCCAAGCCCGGAUAACAGUGGAGGGGGCGG | 0.111
AACACUGCCAAUGCCUGUCCCAAGCCCGGAUAAUAGUGGAGGGGGCGG | 0.577
AACACUGCCAAUGCCUGUCCCAAGCCCGGAUAAGAGUGGAGGGGGCGG | 0.396
AACACUGCCAAUGCCGAUCCCAAGCUCGGAUAAAAGUGGAGGGGGCGG | 0.923
AACACUGCCAAUGCCGAUCACAAGCCCGGAUAAAAGUGGAGGGGGCGG | 0.0884
AACACUGCCAAUGCCGAUCGCAAGCCCGGAUAAAAGUGGAGGGGGCGG | 0.0402
AACACUGCCAAUGCCCGUCCCAAGCCCGGAUAAAAAUGGAGGGGGCGG | 0.188
AACACUGCCAAUGCCUGUCCCAAGCCCGGAUAAAAGUGGAGCGGGCGG | 0.25
AACACUGCCAAUGCCCGUCCCAAGCCCGGAUAAAAGUGGAAGGGGCGG | 0.143
AACACUGCCAAUGCCCAUCCCAAGCCCGGAUAAAAGUGGAGGGGGCGG | 0.124
AACACUGCCAAUGCCCGUCCCAAGCCCGGAUAAAAGUGGAGGGGGCGC | 0.709
AACACUGCCAAUGCCCGUCCCAAGCCCGGAUAAAAGUGGAGGGGGCGU | 0.414
AACACUGCCAAUGCCCGUCCCAAGCCCGGAUAAAAGUGGAGGGGGCGA | 0.473
AACACUGCCAAUGCCUGUUCCAAGCCCGGAUAAAAGUGGAGGGGGCGG | 0.697
AACACUGCCAAUGCCUGUACCAAGCCCGGAUAAAAGUGGAGGGGGCGG | 0.284
AACACUGCCAAUGCCUGUGCCAAGCCCGGAUAAAAGUGGAGGGGGCGG | 0.342
AACACUGCCAAUGCCUGUCCCAAGCCCGGAUAAAAGUGGAGGGUGCGG | 1.14
AACACUGCCAAUGCCUGUCCCAAGCCCGGAUAAAAGUGGAGGGCGCGG | 1.05
AACACUGCCAAUGCCUGUCCCAAGCCCGGAUAAAAGUGGAGGGAGCGG | 1.01
AACACUGCCAAUGCCUGUCCCAAGCCCGGAUAAAAGUGGAGGGGGCGU | 0.843
AACACUGCCAAUGCCUGUCCCAAGCCCGGAUAAAAGUGGAGGGGGCGC | 1.06
AACACUGCCAAUGCCUGUCCCAAGCCCGGAUAAAAGUGGAGGGGGCGA | 0.898
AACACUGCCAAUGCCGAUCCCAACCCCGGAUAAAAGUGGAGGGGGCGG | 0.128
AACACUGCCAAUGCCGAUCCCAAUCCCGGAUAAAAGUGGAGGGGGCGG | 0.0891
AACACUGCCAAUGCCUGUCCCAAGCCCGGAUAAAGGUGGAGGGGGCGG | 0.765

Variant | self-cleavage
AACACUGCCAAUGCCUGUCCCAAGCCCGGAUAAAUGUGGAGGGGGCGG | 0.948
AACACUGCCAAUGCCUGUCCCAAGCCCGGAUAAACGUGGAGGGGGCGG | 0.961
AACACUGCCAAUGCCCGUCCCAAUCCCGGAUAAAAGUGGAGGGGGCGG | 0.0773
AACACUGCCAAUGCCGAUCCCAAGCCCGGAUAACAGUGGAGGGGGCGG | 0.0806
AACACUGCCAAUGCCCGUCCCAAGCCCGGACAAAAGUGGAGGGGGCGG | 0.429
AACACUGCCAAUGCCCGUCCCAAGCCCGGAAAAAAGUGGAGGGGGCGG | 0.657
AACACUGCCAAUGCCUGUCCCAAGCCCGGAUAAAACUGGAGGGGGCGG | 0.156
AACACUGCCAAUGCCGAUCCCAAGCCCGGAUGAAAGUGGAGGGGGCGG | 0.6
AACACUGCCAAUGCCGAUCCCAAGCCCGGAUUAAAGUGGAGGGGGCGG | 0.476
AACACUGCCAAUGCCGAUCCCAAGCCCGGAUCAAAGUGGAGGGGGCGG | 0.303
AACACUGCCAAUGCCCGUCCCAAGCCCGGAUAAAAGUAGAGGGGGCGG | 0.676
AACACUGCCAAUGCCCGUCCCAAGCCCGGAUAAAAGUUGAGGGGGCGG | 0.535
AACACUGCCAAUGCCUGUCUCAAGCCCGGAUAAAAGUGGAGGGGGCGG | 0.797
AACACUGCCAAUGCCUGUCACAAGCCCGGAUAAAAGUGGAGGGGGCGG | 0.109
AACACUGCCAAUGCCUGUCGCAAGCCCGGAUAAAAGUGGAGGGGGCGG | 0.098
AACACUGCCAAUGCCCGGCCCAAGCCCGGAUAAAAGUGGAGGGGGCGG | 0.116
AACACUGCCAAUGCCGAUCCCACGCCCGGAUAAAAGUGGAGGGGGCGG | 0.0909
AACACUGCCAAUGCCGAUCCCAUGCCCGGAUAAAAGUGGAGGGGGCGG | 0.28
AACACUGCCAAUGCCGAUCCCAGGCCCGGAUAAAAGUGGAGGGGGCGG | 0.0743
AACACUGCCAAUGCCGAUCCCAAGCCAGGAUAAAAGUGGAGGGGGCGG | 0.221
AACACUGCCAAUGCCUGCCCCAAGCCCGGAUAAAAGUGGAGGGGGCGG | 0.351
AACACUGCCAAUGCCGAUCCCAAGCCCGGAUACAAGUGGAGGGGGCGG | 0.384
AACACUGCCAAUGCCGAUCCCAAGCCCGGAUAUAAGUGGAGGGGGCGG | 0.614
AACACUGCCAAUGCCUGUCCCAAGCCCGGAUAAAAGUGGACGGGGCGG | 0.212
AACACUGCCAAUGCCUGUCCCAAGCCCGGAUAAAAGUGGAUGGGGCGG | 0.35
AACACUGCCAAUGCCUUUCCCAAGCCCGGAUAAAAGUGGAGGGGGCGG | 0.231
AACACUGCCAAUGCCUAUCCCAAGCCCGGAUAAAAGUGGAGGGGGCGG | 0.0957
